In patent US20140363833:

B1: FVIIa (Haematologic Technologies) (protein)
chain: ANAFLEELRPGSLERECKEEQCSFEEAREIFKDAERTKLFWISYSDGDQCASSPCQNGGSCKDQLQSYICFCLPAFEGRNCETHKDDQLICVNENGGCEQYCSDHTGTKRSCRCHEGYSLLADGVSCTPTVEYPCGKIPILEKRNASKPQGRIVGGKVCPKGECPWQVLLLVNGAQLCGGTLINTIWVVSAAHCFDKIKNWRNLIAVLGEHDLSEHDGDEQSRRVAQVIIPSTYVPGTTNHDIALLRLHQPVVLTDHVVPLCLPERTFSERTLAFVRFSLVSGWGQLLDRGATALELMVLNVPRLMTQDCLQQSRKVGDSPNITEYMFCAGYSDGSKDSCKGDSGGPHATHYRGTWYLTGIVSWGQGCATVGHFGVYTRVSQYIEWLQKLMRSEPRPGVLLRAPFP

Legend:
[1] = tested on: T1, fluorophore-labeled thrombin substrate (fPR-x-S extended with glycine spacers and a C-terminal cysteine) on nanoworms
T1 sequence: GGFPRSGGGC

[2] = tested on: T2, D-isomer of the MMP9 substrate PLGVRGK on nanoworms
T2 sequence: PLGVRGK

[3] = tested on: T3, D-stereoisomer of the thrombin substrate PLGLRSW on nanoworms
T3 sequence: PLGLRSW

[4] = tested on: T4, fluorescein-labeled thrombin-cleavable substrate PLGLRSW on nanoworms
T4 sequence: PLGLRSW

[5] = molecular target: T5, fluorophore-labeled thrombin substrate (fPR-x-S extended with glycine spacers and a C-terminal cysteine) on nanoworms (not fully specified)
T5 chain: GGFPRSGGGC

Molecule | sample fluorescence (fluorogenic NW protease assay) [1] | also measured
FIXa (Haematologic Technologies) | negligible proteolysis was observed from the panel of non-cognate proteases | –
FXIa (Haematologic Technologies) | negligible proteolysis was observed from the panel of non-cognate proteases | –
FXa (Haematologic Technologies) | negligible proteolysis was observed from the panel of non-cognate proteases | –
activated protein C (Haematologic Technologies) | negligible proteolysis was observed from the panel of non-cognate proteases | –
recombinant MMP9 (R&D Systems) | – | sample fluorescence (fluorogenic NW protease assay) [2]: no activity when the broad-spectrum MMP inhibitor Marimastat or D-isomer substrates were used
recombinant thrombin (Haematologic Technologies) | – | sample fluorescence (fluorogenic NW protease assay) [3]: No increase in fluorescence was observed in the presence of Argatroban, a direct thrombin inhibitor, or when the substrate was synthesized with protease-resistant D-stereoisomers; sample fluorescence (fluorogenic NW protease assay) [4]: observed a rapid increase in sample fluorescence as cleaved peptide fragments released into solution fluoresced freely
B1 | – | sample fluorescence (fluorogenic NW protease assay) [5]: negligible proteolysis was observed from the panel of non-cognate proteases
